According to patent publication US20040223966A1 (Pfizer, published 2004):

Target: T1, ActRIIB-Fc (human)
T1 construct: The leader is stated as aa 1-21; also called ActRIIB fusion polypeptide; recombinant ActRIIB-Fc
Experiment: ELISA: ActRIIB-Fc coated at 1 ug/ml, biotinylated ligand titrated, SA-HRP detection
Method: Biotinylated mature BMP-11 was prepared from BMP-11 latent complex in the same manner as described above. Recombinant ActRIIB-Fc, prepared as described in Examples 3 and 4, was coated on 96-well flat-bottom assay plates (Costar, NY, Cat. No. 3590) at 1 μg/ml in 0.2 M sodium carbonate buffer (pH 10) overnight at 4° C. Plates were then blocked with 1 mg/ml bovine serum albumin and washed following standard ELISA protocol. 100 μl aliquots of biotinylated GDF-8 or BMP-11 at various concentrations were added to the blocked ELISA plate, incubated for 1 hr and washed. The amount of bound GDF-8 or BMP-11 was detected by Streptavidin-Horseradish peroxidase (SA-HRP, BD PharMingen, San Diego, Calif., Cat. No. 13047E) followed by the addition of TMB (KPL, Gaithersburg, Md., Cat. No. 50-76-04). Colorimetric measurements were done at […] in a Molecular Devices microplate reader.

T1 sequence (chain, as listed by the source): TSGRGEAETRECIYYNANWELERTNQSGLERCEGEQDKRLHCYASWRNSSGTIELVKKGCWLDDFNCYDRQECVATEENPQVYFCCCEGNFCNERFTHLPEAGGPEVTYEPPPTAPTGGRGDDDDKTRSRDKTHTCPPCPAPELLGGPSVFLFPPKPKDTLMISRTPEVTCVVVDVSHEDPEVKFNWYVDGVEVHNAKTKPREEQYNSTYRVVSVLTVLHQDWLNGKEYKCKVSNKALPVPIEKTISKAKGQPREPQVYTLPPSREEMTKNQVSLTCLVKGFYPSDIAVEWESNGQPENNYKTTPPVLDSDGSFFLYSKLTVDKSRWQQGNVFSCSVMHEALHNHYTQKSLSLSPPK

- EC50: 0.04 µg/mL
B1: biotinylated mature BMP-11 (ligand, human, UniProt O95390 299-407, looked up)
chain: NLGLDCDEHSSESRCCRYPLTVDFEAFGWDWIIAPKRYKANYCSGQCEYMFMQKYPHTHLVQQANPRGSAGPCCTPTKMSPINMLYFNDKQQIIYGKIPGMVVDRCGCS
modifications: biotinylated with EZ-link Sulfo-NHS-Biotin, in the same manner as GDF-8; sites not stated
notes: mature; Active mature BMP-11 dimer purified from a cell line expressing recombinant human BMP-11; also called biotinylated BMP-11; GDF-11
